Two molecules from PMC2695410 (2009) can be followed below.

As usually defined, the Kd is the equilibrium constant for the complex coming apart. Low readings indicate tighter binding, high ones weaker binding.

The experiment addresses Calmodulin (Bos taurus, UniProt P62157). As to the kind of experiment: dansyl-calmodulin fluorescence titration.

As for WASMLACRLWKAISRALFAEF (dansyl-calmodulin, Ca2+) [Aquaporin 6 N-terminal peptide (h6 Nter) N-terminal calmodulin binding site, 21-aa peptide], the Kd was 1780 nM.
RAYLLVGGLWTAISKALFAEF (dansyl-calmodulin, Ca2+) [Aquaporin 6 N-terminal peptide (Nter) N-terminal calmodulin binding site, 21-aa peptide] returned a Kd of 790 nM.
